In publication PMC10540216, “Activity Guided Azide-methyllysine Photo-trapping for Substrate Profiling of Lysine Demethylases” (Journal of the American Chemical Society, 2023):

B1: ACINU_HUMAN (protein, UniProt Q9UKV3 1-1341, looked up)
Apoptotic chromatin …: MWRRKHPRTSGGTRGVLSGNRGVEYGSGRGHLGTFEGRWRKLPKMPEAVGTDPSTSRKMAELEEVTLDGKPLQALRVTDLKAALEQRGLAKSGQKSALVKRLKGALMLENLQKHSTPHAAFQPNSQIGEEMSQNSFIKQYLEKQQELLRQRLEREAREAAELEEASAESEDEMIHPEGVASLLPPDFQSSLERPELELSRHSPRKSSSISEEKGDSDDEKPRKGERRSSRVRQARAAKLSEGSQPAEEEEDQETPSRNLRVRADRNLKTEEEEEEEEEEEEDDEEEEGDDEGQKSREAPILKEFKEEGEEIPRVKPEEMMDERPKTRSQEQEVLERGGRFTRSQEEARKSHLARQQQEKEMKTTSPLEEEEREIKSSQGLKEKSKSPSPPRLTEDRKKASLVALPEQTASEEETPPPLLTKEASSPPPHPQLHSEEEIEPMEGPAPAVLIQLSPPNTDADTRELLVSQHTVQLVGGLSPLSSPSDTKAESPAEKVPEESVLPLVQKSTLADYSAQKDLEPESDRSAQPLPLKIEELALAKGITEECLKQPSLEQKEGRRASHTLLPSHRLKQSADSSSSRSSSSSSSSSRSRSRSPDSSGSRSHSPLRSKQRDVAQARTHANPRGRPKMGSRSTSESRSRSRSRSRSASSNSRKSLSPGVSRDSSTSYTETKDPSSGQEVATPPVPQLQVCEPKERTSTSSSSVQARRLSQPESAEKHVTQRLQPERGSPKKCEAEEAEPPAATQPQTSETQTSHLPESERIHHTVEEKEEVTMDTSENRPENDVPEPPMPIADQVSNDDRPEGSVEDEEKKESSLPKSFKRKISVVSATKGVPAGNSDTEGGQPGRKRRWGASTATTQKKPSISITTESLKSLIPDIKPLAGQEAVVDLHADDSRISEDETERNGDDGTHDKGLKICRTVTQVVPAEGQENGQREEEEEEKEPEAEPPVPPQVSVEVALPPPAEHEVKKVTLGDTLTRRSISQQKSGVSITIDDPVRTAQVPSPPRGKISNIVHISNLVRPFTLGQLKELLGRTGTLVEEAFWIDKIKSHCFVTYSTVEEAVATRTALHGVKWPQSNPKFLCADYAEQDELDYHRGLLVDRPSETKTEEQGIPRPLHPPPPPPVQPPQHPRAEQREQERAVREQWAEREREMERRERTRSEREWDRDKVREGPRSRSRSRDRRRKERAKSKEKKSEKKEKAQEEPPAKLLDDLFRKTKAAPCIYWLPLTDSQIVQKEAERAERAKEREKRRKEQEEEEQKEREKEAERERNRQLEREKRREHSRERDRERERERERDRGDRDRDRERDRERGRERDRRDTKRHSRSRSRSTPVRDRGGRR
B2: NONO_HUMAN (protein, UniProt Q15233 1-471, looked up)
Non-POU domain-containing …: MQSNKTFNLEKQNHTPRKHHQHHHQQQHHQQQQQQPPPPPIPANGQQASSQNEGLTIDLKNFRKPGEKTFTQRSRLFVGNLPPDITEEEMRKLFEKYGKAGEVFIHKDKGFGFIRLETRTLAEIAKVELDNMPLRGKQLRVRFACHSASLTVRNLPQYVSNELLEEAFSVFGQVERAVVIVDDRGRPSGKGIVEFSGKPAARKALDRCSEGSFLLTTFPRPVTVEPMDQLDDEEGLPEKLVIKNQQFHKEREQPPRFAQPGSFEYEYAMRWKALIEMEKQQQDQVDRNIKEAREKLEMEMEAARHEHQVMLMRQDLMRRQEELRRMEELHNQEVQKRKQLELRQEEERRRREEEMRRQQEEMMRRQQEGFKGTFPDAREQEIRMGQMAMGGAMGINNRGAMPPAPVPAGTPAPPGPATMMPDGTLGLTPPTTERFGQAATMEGIGAIGGTPPAFNRAAPGAEFAPNKRRRY
B3: HNRPL_HUMAN (protein, UniProt P14866 1-589, looked up)
Heterogeneous nuclear …: MSRRLLPRAEKRRRRLEQRQQPDEQRRRSGAMVKMAAAGGGGGGGRYYGGGSEGGRAPKRLKTDNAGDQHGGGGGGGGGAGAAGGGGGGENYDDPHKTPASPVVHIRGLIDGVVEADLVEALQEFGPISYVVVMPKKRQALVEFEDVLGACNAVNYAADNQIYIAGHPAFVNYSTSQKISRPGDSDDSRSVNSVLLFTILNPIYSITTDVLYTICNPCGPVQRIVIFRKNGVQAMVEFDSVQSAQRAKASLNGADIYSGCCTLKIEYAKPTRLNVFKNDQDTWDYTNPNLSGQGDPGSNPNKRQRQPPLLGDHPAEYGGPHGGYHSHYHDEGYGPPPPHYEGRRMGPPVGGHRRGPSRYGPQYGHPPPPPPPPEYGPHADSPVLMVYGLDQSKMNCDRVFNVFCLYGNVEKVKFMKSKPGAAMVEMADGYAVDRAITHLNNNFMFGQKLNVCVSKQPAIMPGQSYGLEDGSCSYKDFSESRNNRFSTPEQAAKNRIQHPSNVLHFFNAPLEVTEENFFEICDELGVKRPSSVKVFSGKSERSSSGLLEWESKSDALETLGFLNHYQMKNPNGPYPYTLKLCFSTAQHAS
B4: LMNB1_HUMAN (protein, UniProt P20700 2-583, looked up)
Lamin-B1: ATATPVPPRMGSRAGGPTTPLSPTRLSRLQEKEELRELNDRLAVYIDKVRSLETENSALQLQVTEREEVRGRELTGLKALYETELADARRALDDTARERAKLQIELGKCKAEHDQLLLNYAKKESDLNGAQIKLREYEAALNSKDAALATALGDKKSLEGDLEDLKDQIAQLEASLAAAKKQLADETLLKVDLENRCQSLTEDLEFRKSMYEEEINETRRKHETRLVEVDSGRQIEYEYKLAQALHEMREQHDAQVRLYKEELEQTYHAKLENARLSSEMNTSTVNSAREELMESRMRIESLSSQLSNLQKESRACLERIQELEDLLAKEKDNSRRMLTDKEREMAEIRDQMQQQLNDYEQLLDVKLALDMEISAYRKLLEGEEERLKLSPSPSSRVTVSRASSSRSVRTTRGKRKRVDVEESEASSSVSISHSASATGNVCIEEIDVDGKFIRLKNTSEQDQPMGGWEMIRKIGDTSVSYKYTSRYVLKAGQTVTIWAANAGVTASPPTDLIWKNQNSWGTGEDVKVILKNSQGEEVAQRSTVFKTTIPEEEEEEEEAAGVVVEEELFHQQGTPRASNRSC
B5: LMNA_HUMAN (protein, UniProt P02545 1-661, looked up)
Prelamin-A/C: METPSQRRATRSGAQASSTPLSPTRITRLQEKEDLQELNDRLAVYIDRVRSLETENAGLRLRITESEEVVSREVSGIKAAYEAELGDARKTLDSVAKERARLQLELSKVREEFKELKARNTKKEGDLIAAQARLKDLEALLNSKEAALSTALSEKRTLEGELHDLRGQVAKLEAALGEAKKQLQDEMLRRVDAENRLQTMKEELDFQKNIYSEELRETKRRHETRLVEIDNGKQREFESRLADALQELRAQHEDQVEQYKKELEKTYSAKLDNARQSAERNSNLVGAAHEELQQSRIRIDSLSAQLSQLQKQLAAKEAKLRDLEDSLARERDTSRRLLAEKEREMAEMRARMQQQLDEYQELLDIKLALDMEIHAYRKLLEGEEERLRLSPSPTSQRSRGRASSHSSQTQGGGSVTKKRKLESTESRSSFSQHARTSGRVAVEEVDEEGKFVRLRNKSNEDQSMGNWQIKRQNGDDPLLTYRFPPKFTLKAGQVVTIWAAGAGATHSPPTDLVWKAQNTWGCGNSLRTALINSTGEEVAMRKLVRSVTVVEDDEDEDGDDLLHHHHGSHCSSSGDPAEYNLRSRTVLCGTCGQPADKASASGSGAQVGGPISSGSSASSVTVTRSYRSVGGSGGGSFGDNLVTRSYLLGNSSPRTQSPQNC
B6: TBB5_HUMAN (protein, UniProt P07437 1-444, looked up)
Tubulin beta chain: MREIVHIQAGQCGNQIGAKFWEVISDEHGIDPTGTYHGDSDLQLDRISVYYNEATGGKYVPRAILVDLEPGTMDSVRSGPFGQIFRPDNFVFGQSGAGNNWAKGHYTEGAELVDSVLDVVRKEAESCDCLQGFQLTHSLGGGTGSGMGTLLISKIREEYPDRIMNTFSVVPSPKVSDTVVEPYNATLSVHQLVENTDETYCIDNEALYDICFRTLKLTTPTYGDLNHLVSATMSGVTTCLRFPGQLNADLRKLAVNMVPFPRLHFFMPGFAPLTSRGSQQYRALTVPELTQQVFDAKNMMAACDPRHGRYLTVAAVFRGRMSMKEVDEQMLNVQNKNSSYFVEWIPNNVKTAVCDIPPRGLKMAVTFIGNSTAIQELFKRISEQFTAMFRRKAFLHWYTGEGMDEMEFTEAESNMNDLVSEYQQYQDATAEEEEDFGEEAEEEA
B7: ATPA_HUMAN (protein, UniProt P25705 44-553, looked up)
ATP synthase F(1) complex …: QKTGTAEMSSILEERILGADTSVDLEETGRVLSIGDGIARVHGLRNVQAEEMVEFSSGLKGMSLNLEPDNVGVVVFGNDKLIKEGDIVKRTGAIVDVPVGEELLGRVVDALGNAIDGKGPIGSKTRRRVGLKAPGIIPRISVREPMQTGIKAVDSLVPIGRGQRELIIGDRQTGKTSIAIDTIINQKRFNDGSDEKKKLYCIYVAIGQKRSTVAQLVKRLTDADAMKYTIVVSATASDAAPLQYLAPYSGCSMGEYFRDNGKHALIIYDDLSKQAVAYRQMSLLLRRPPGREAYPGDVFYLHSRLLERAAKMNDAFGGGSLTALPVIETQAGDVSAYIPTNVISITDGQIFLETELFYKGIRPAINVGLSVSRVGSAAQTRAMKQVAGTMKLELAQYREVAAFAQFGSDLDAATQQLLSRGVRLTELLKQGQYSPMAIEEQVAVIYAGVRGYLDKLEPSKITKFENAFLSHVVSQHQALLGTIRADGKISEQSDAKLKEIVTNFLAGFEA
B8: PAIRB_HUMAN (protein, UniProt Q8NC51 2-408, looked up)
SERPINE1 mRNA-binding protein …: PGHLQEGFGCVVTNRFDQLFDDESDPFEVLKAAENKKKEAGGGGVGGPGAKSAAQAAAQTNSNAAGKQLRKESQKDRKNPLPPSVGVVDKKEETQPPVALKKEGIRRVGRRPDQQLQGEGKIIDRRPERRPPRERRFEKPLEEKGEGGEFSVDRPIIDRPIRGRGGLGRGRGGRGRGMGRGDGFDSRGKREFDRHSGSDRSSFSHYSGLKHEDKRGGSGSHNWGTVKDELTESPKYIQKQISYNYSDLDQSNVTEETPEGEEHHPVADTENKENEVEEVKEEGPKEMTLDEWKAIQNKDRAKVEFNIRKPNEGADGQWKKGFVLHKSKSEEAHAEDSVMDHHFRKPANDITSQLEINFGDLGRPGRGGRGGRGGRGRGGRPNRGSRTDKSSASAPDVDDPEAFPALA
B9: ECHB_HUMAN (protein, UniProt P55084 34-474, looked up)
Trifunctional enzyme subunit …: AAPAVQTKTKKTLAKPNIRNVVVVDGVRTPFLLSGTSYKDLMPHDLARAALTGLLHRTSVPKEVVDYIIFGTVIQEVKTSNVAREAALGAGFSDKTPAHTVTMACISANQAMTTGVGLIASGQCDVIVAGGVELMSDVPIRHSRKMRKLMLDLNKAKSMGQRLSLISKFRFNFLAPELPAVSEFSTSETMGHSADRLAAAFAVSRLEQDEYALRSHSLAKKAQDEGLLSDVVPFKVPGKDTVTKDNGIRPSSLEQMAKLKPAFIKPYGTVTAANSSFLTDGASAMLIMAEEKALAMGYKPKAYLRDFMYVSQDPKDQLLLGPTYATPKVLEKAGLTMNDIDAFEFHEAFSGQILANFKAMDSDWFAENYMGRKTKVGLPPLEKFNNWGGSLSLGHPFGATGCRLVMAAANRLRKEGGQYGLVAACAAGGQGHAMIVEAYPK
B10: IF4A2_HUMAN (protein, UniProt Q14240 1-407, looked up)
Eukaryotic initiation factor …: MSGGSADYNREHGGPEGMDPDGVIESNWNEIVDNFDDMNLKESLLRGIYAYGFEKPSAIQQRAIIPCIKGYDVIAQAQSGTGKTATFAISILQQLEIEFKETQALVLAPTRELAQQIQKVILALGDYMGATCHACIGGTNVRNEMQKLQAEAPHIVVGTPGRVFDMLNRRYLSPKWIKMFVLDEADEMLSRGFKDQIYEIFQKLNTSIQVVLLSATMPTDVLEVTKKFMRDPIRILVKKEELTLEGIKQFYINVEREEWKLDTLCDLYETLTITQAVIFLNTRRKVDWLTEKMHARDFTVSALHGDMDQKERDVIMREFRSGSSRVLITTDLLARGIDVQQVSLVINYDLPTNRENYIHRIGRGGRFGRKGVAINFVTEEDKRILRDIETFYNTTVEEMPMNVADLI
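Also: lysates from HEK293T cells pretreated with a KDM4 inhibitor to raise proteome methylation, affinity-purified after ±UV, gel-resolved, trypsin-digested, with exclusive unique peptides per protein averaged per condition.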

The molecules below were run on KDM4A-I71AzF (assay: CASI: photo-crosslinking with HEK293T cell extracts, StrepTactin enrichment and LC-MS/MS proteomics). Conditions: sheet "Final results but with 0.01".
Format: binding, human
B1 was tested, and the “Fold change (+UV/-UV)” value was 2.
For B2, the “Fold change (+UV/-UV)” value was 1.778.
With B3 the “Fold change (+UV/-UV)” value was 1.125.
B4 was tested, and the “Fold change (+UV/-UV)” value was 0.7273.
In the case of B5, the “Fold change (+UV/-UV)” value is reported as 1.25.
With B6 the “Fold change (+UV/-UV)” value was 0.75.
For B7, the “Fold change (+UV/-UV)” value was 1.4.
B8 was tested, and the “Fold change (+UV/-UV)” value was 0.8571.
With B9 the “Fold change (+UV/-UV)” value was 0.
B10 was tested, and the “Fold change (+UV/-UV)” value was 200.
